Assay results published in US20230304012A1.

Key:
[1] = target: full length MuSK (wild type mouse, on primary myotubes) (mouse) (UniProt Q61006); experiment: cell-based or functional assay
[2] = target: ΔIg3-MuSK (mouse, on primary myotubes from ΔIg3-MuSK mice) (mouse) (UniProt Q61006); experiment: cell-based or functional assay

Wnt11 transcription (qRT-PCR), fold increase after 25 ng/mL BMP4 for 2 hours in primary myotubes [1]: 5.8 fold
Wnt11 transcription (qRT-PCR), fold increase after 25 ng/mL BMP4 for 2 hours in primary myotubes [2]: 2.6 fold
Substance: BMP4 (ligand)
